# ± gives the uncertainty stated by the source.
# B1: E3 ubiquitin-protein ligase TRIM36, residues 208 to 252; numbered along this chain, Q9NQ86 (parent)
# chain: KILMCPEHETERINMYCELCRRPVCHLCKLGGNHANHRVTTMSSA
# Variants of: B1
# Experiment: abundance fitness (aPCA) (normalised: wild type 0, dead -1); higher = more abundant; growth selection in yeast, the domain comes from the species named
# Details: Homo sapiens
row,Variant,abundance fitness
1,K29E,0.048 ± 0.054
2,K29A,0.012 ± 0.047
3,P23D,0.037 ± 0.076
4,P23S,-0.058 ± 0.065
5,P23T,0.019 ± 0.08
6,M42E,0.16 ± 0.061
7,M42W,-0.071 ± 0.048
8,M42H,-0.524 ± 0.28
9,M42V,0.001 ± 0.046
10,M42N,-0.059 ± 0.079
11,C17P,-0.705 ± 0.12
12,C17Q,-0.954 ± 0.43
13,C17W,-1.16 ± 0.15
14,C17F,-1.21 ± 0.15
15,C17A,-1.01 ± 0.17
16,C20F,-1.37 ± 0.14
17,C20R,-0.561 ± 0.05
18,C20E,-0.491 ± 0.061
19,C20L,-0.591 ± 0.066
20,C20I,-1.01 ± 0.11
21,C20V,-0.789 ± 0.059

row,Variant,abundance fitness
1,C20K,-0.547 ± 0.079
2,C20S,-0.679 ± 0.064
3,H8W,-1.6 ± 0.2
4,H8V,-1.13 ± 0.073
5,H8Q,-0.716 ± 0.073
6,H8D,-0.858 ± 0.089
7,T41V,-0.084 ± 0.046
8,T41R,-0.093 ± 0.045
9,T41M,-0.142 ± 0.083
10,T41Y,-0.29 ± 0.12
11,C28V,-0.525 ± 0.062
12,C28Y,-0.904 ± 0.27
13,C28I,-0.613 ± 0.09
14,C28H,-0.763 ± 0.16
15,C28M,-0.723 ± 0.13
16,C28K,-0.592 ± 0.13
17,K1I,-0.291 ± 0.14
18,K1F,-0.167 ± 0.097
19,K1Y,-0.497 ± 0.12
20,K1A,-0.25 ± 0.068
21,K1M,-0.277 ± 0.073

row,Variant,abundance fitness
1,N33Y,-0.153 ± 0.066
2,N33I,-0.064 ± 0.072
3,N33M,-0.015 ± 0.064
4,N33E,-0.003 ± 0.072
5,N33T,0.044 ± 0.052
6,N33R,-0.066 ± 0.052
7,G32T,-0.07 ± 0.056
8,G32Q,-0.036 ± 0.061
9,G32K,-0.129 ± 0.084
10,G32I,-0.276 ± 0.1
11,G32C,-0.132 ± 0.06
12,G32N,-0.228 ± 0.08
13,G32H,-0.267 ± 0.11
14,G32E,0.089 ± 0.052
15,G32F,-0.243 ± 0.12
16,G32S,-0.045 ± 0.05
17,G32P,-0.015 ± 0.054
18,V39W,-0.138 ± 0.052
19,V39S,0.008 ± 0.055
20,V39H,-0.023 ± 0.088
21,V39D,0.079 ± 0.08

row,Variant,abundance fitness
1,V39Y,-0.184 ± 0.1
2,V39E,0.037 ± 0.053
3,V39P,-0.005 ± 0.053
4,V39L,-0.007 ± 0.053
5,V39N,0.057 ± 0.097
6,V39C,-0.079 ± 0.071
7,V39I,-0.149 ± 0.24
8,E18N,-0.151 ± 0.082
9,E18S,-0.148 ± 0.057
10,E18R,-0.385 ± 0.054
11,E18Y,-0.416 ± 0.12
12,M15Q,-0.285 ± 0.23
13,M15R,-0.329 ± 0.35
14,M15V,-0.309 ± 0.27
15,S43F,-0.415 ± 0.18
16,S43W,-0.352 ± 0.066
17,S43A,0.001 ± 0.056
18,S43Q,0.027 ± 0.067
19,S43K,-0.145 ± 0.065
20,S43L,-0.181 ± 0.056
21,P6N,-0.139 ± 0.1

# Reference: the Human Domainome abundance scans (Beltran et al. 2025)
